In assay [1] the target is T1, recombinant human CSF-1 (human) (UniProt P09603).
T1 sequence (looked up): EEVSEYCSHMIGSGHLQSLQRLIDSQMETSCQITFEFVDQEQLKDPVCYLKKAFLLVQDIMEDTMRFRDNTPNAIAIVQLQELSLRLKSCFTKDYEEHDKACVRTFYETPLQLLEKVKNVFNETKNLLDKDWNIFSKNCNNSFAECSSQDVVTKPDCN
Kind of assay: cell-based or functional assay.

Assay [2] concerns the target T1, recombinant human CSF-1 (human). Kind of assay: cell-based or functional assay. The source holds these as a separate data set.

Read-outs that look alike come from different tables or passages of the source.

Chain of c-fms-Fc, human c-fms extracellular domain (residues 1-512) with a C-terminal human Fc domain (P07333 20-512): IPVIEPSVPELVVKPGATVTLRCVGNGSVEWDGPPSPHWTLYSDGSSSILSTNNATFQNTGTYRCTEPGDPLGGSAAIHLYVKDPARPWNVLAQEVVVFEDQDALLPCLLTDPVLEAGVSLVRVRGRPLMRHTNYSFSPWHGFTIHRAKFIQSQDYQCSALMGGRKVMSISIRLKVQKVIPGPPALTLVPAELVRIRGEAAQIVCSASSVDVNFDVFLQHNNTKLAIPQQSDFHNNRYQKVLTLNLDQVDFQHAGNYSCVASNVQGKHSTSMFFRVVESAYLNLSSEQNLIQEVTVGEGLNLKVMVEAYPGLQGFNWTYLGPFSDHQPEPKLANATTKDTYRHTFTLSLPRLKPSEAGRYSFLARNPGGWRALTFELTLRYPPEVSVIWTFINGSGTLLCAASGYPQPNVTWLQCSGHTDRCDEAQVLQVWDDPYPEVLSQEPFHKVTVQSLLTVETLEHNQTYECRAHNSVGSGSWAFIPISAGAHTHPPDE

Consider “c-fms-Fc, human c-fms extracellular domain (residues 1-512) with a C-terminal human Fc domain (from UniProt P07333 20-512) (Fc fusion)”, for which, in assay [1], the AML-5 bioassay IC50 was found to be 0.21 nM, the Cynomolgus bone marrow bioassay IC50 is 0.617 nM and the Human CD14+ monocytes bioassay IC50 turned out to be 0.556 nM. In assay [2], the AML-5 bioassay IC50 was found to be 0.034 µg/mL, the Cynomolgus bone marrow bioassay IC50 was 0.1 µg/mL and the Human CD14+ monocytes bioassay IC50 was found to be 0.09 µg/mL.

These data come from patent US20090155164A1.
